Among the targets are HLA-A*02:02; HLA-A*02:06; HLA-A*02:03.
Holding throughout (test): IEDB peptide-MHC binding, purified MHC/competitive/radioactivity; filed as Kd, often an IC50 or EC50 that approximates it; ≥ and ≤ were set here for values at or beyond the usual limits of such assays
Setting [1] is: source organism: Vaccinia virus WR.
[2] abbreviates: source organism: SARS coronavirus Tor2.
Setting [3] is: source organism: Dengue virus 4 Philippines/H241/1956.
Where [4] appears, read: source organism: Dengue virus 1 Brazil/97-11/1997.
[5] abbreviates: source organism: Dengue virus 3 Martinique/1243/1999.

The source of these data is the Immune Epitope Database (IEDB).

The term Kd denotes a measure of binding affinity in units of concentration.

AATKRYPGVM: the Kd with HLA-A*02:02 (setting [1]) was no less than 20.1 µM; in the assay with HLA-A*02:06 (setting [1]), no less than 46.9 µM; with HLA-A*02:03 (setting [1]), no less than 47.9 µM.
Regarding AIAACAMLLV, the Kd in the assay with HLA-A*02:02 (setting [2]) amounted to 0.0059 µM; in the assay with HLA-A*02:06 (setting [2]), 0.0778 µM; in the assay with HLA-A*02:03 (setting [2]) it was 0.0316 µM.
On to CLKNEGVSGL, for which the Kd was determined as 0.127 µM with HLA-A*02:02 (setting [1]), 14.1 µM with HLA-A*02:06 (setting [1]) and 0.0251 µM with HLA-A*02:03 (setting [1]).
With DVDIPTFNSL, the dissociation constant Kd in the assay with HLA-A*02:02 (setting [1]) was determined as 1.81 µM; with HLA-A*02:06 (setting [1]), 9.71 µM; with HLA-A*02:03 (setting [1]), 1.03 µM.
On the same counts, the results for EIDVSEVKTL are 4.95 µM, no less than 56 µM and 2.24 µM.
As for ELMMTTIGIV, in the assay with HLA-A*02:03 (source organism: Dengue virus 2 Peru/IQT2913/1996), the Kd is 0.00202 µM.
EVMPEKRNVV: the figures for the dissociation constant Kd with HLA-A*02:02 (setting [1]), with HLA-A*02:06 (setting [1]) and with HLA-A*02:03 (setting [1]) were no less than 20.2 µM, 12.1 µM and 2.62 µM, respectively.
FANVISKIYT: the results for the Kd with HLA-A*02:02 (setting [1]), with HLA-A*02:06 (setting [1]) and with HLA-A*02:03 (setting [1]) were 7.79 µM, 1.66 µM and 5.31 µM, respectively.
With FMAYMIGQT, in the assay with HLA-A*02:03 (setting [3]), the Kd was found to be 0.00607 µM.
FMEEEIKAEM: the results for the Kd with HLA-A*02:02 (setting [1]), with HLA-A*02:06 (setting [1]) and with HLA-A*02:03 (setting [1]) were 1.03 µM, 0.865 µM and 3.07 µM, respectively.
As for FMRFFTLGSI, the equilibrium dissociation constant (Kd) came to 0.0242 µM with HLA-A*02:02 (setting [2]), 0.195 µM with HLA-A*02:06 (setting [2]) and 0.00076 µM with HLA-A*02:03 (setting [2]).
For FQFICNLLLL, the Kd was determined as 0.00794 µM with HLA-A*02:02 (setting [2]), 0.00087 µM in the assay with HLA-A*02:06 (setting [2]) and 0.062 µM in the assay with HLA-A*02:03 (setting [2]).
For GALDVSASV the same measures were 0.000718 µM, 0.00227 µM and 0.00234 µM.
As to GIADIRDKYM, the Kd in the assay with HLA-A*02:02 (setting [1]) worked out at 0.000693 µM; with HLA-A*02:06 (setting [1]) it was 1.78 µM; in the assay with HLA-A*02:03 (setting [1]) it was 0.0482 µM.
For the sequence GIYNCCESNI, the values for the Kd with HLA-A*02:02 (setting [1]), in the assay with HLA-A*02:06 (setting [1]) and with HLA-A*02:03 (setting [1]) were 0.0683 µM, 0.29 µM and 0.14 µM, respectively.
In the case of GMAMTTVLSI, the Kd with HLA-A*02:03 (setting [3]) was determined as 0.00652 µM.
As for GVLIAGIIL, the Kd came out at 5.24 µM with HLA-A*02:02 (setting [1]), 0.951 µM in the assay with HLA-A*02:06 (setting [1]) and 1.04 µM with HLA-A*02:03 (setting [1]).
In the case of HLTENNLYI, the values for the Kd in the assay with HLA-A*02:02 (setting [1]), with HLA-A*02:06 (setting [1]) and in the assay with HLA-A*02:03 (setting [1]) were 0.114 µM, 1.81 µM and 14.4 µM, respectively.
As to IASILSLETV, the Kd was determined as 0.234 µM in the assay with HLA-A*02:02 (setting [1]), 0.0473 µM with HLA-A*02:06 (setting [1]) and 0.0928 µM with HLA-A*02:03 (setting [1]).
Turning to IAVASGLLWV, the Kd in the assay with HLA-A*02:06 (setting [3]) is 0.0106 µM.
As for ILYYGANGST, the figures for the dissociation constant Kd with HLA-A*02:02 (setting [1]), with HLA-A*02:06 (setting [1]) and with HLA-A*02:03 (setting [1]) were 0.341 µM, 1.84 µM and 0.0393 µM, respectively.
Consider IMQVFFGYFA, for which the Kd with HLA-A*02:02 (setting [2]) is 0.59 µM; with HLA-A*02:06 (setting [2]), 0.0511 µM; with HLA-A*02:03 (setting [2]) it was 1.57 µM.
As to IMSIGFEARI, the Kd is 0.703 µM with HLA-A*02:02 (setting [1]), 1.6 µM with HLA-A*02:06 (setting [1]) and 1.5 µM with HLA-A*02:03 (setting [1]).
IMSMMNITRL: the Kd with HLA-A*02:02 (setting [1]) turned out to be 0.0618 µM; with HLA-A*02:06 (setting [1]) it was 0.585 µM; with HLA-A*02:03 (setting [1]), 0.106 µM.
As for KLFTIAMWLL, the Kd is 0.00853 µM with HLA-A*02:02 (setting [2]), 0.262 µM with HLA-A*02:06 (setting [2]) and 0.709 µM with HLA-A*02:03 (setting [2]).
Take KLKVDSDSGL: the dissociation constant (Kd) is 0.0746 µM with HLA-A*02:02 (setting [1]), no less than 10 µM in the assay with HLA-A*02:06 (setting [1]) and 0.0558 µM with HLA-A*02:03 (setting [1]).
Turning to KLYIALCKVT, the Kd with HLA-A*02:02 (setting [1]) turned out to be 7.11 µM; with HLA-A*02:06 (setting [1]), 6.36 µM; in the assay with HLA-A*02:03 (setting [1]) it was 0.625 µM.
Regarding KTPVIVVPVI, the Kd with HLA-A*02:02 (setting [1]) was determined as 9.09 µM; with HLA-A*02:06 (setting [1]), 1.89 µM; in the assay with HLA-A*02:03 (setting [1]) it was 6.2 µM.
In the case of LAELLEMKYA, the Kd is 0.999 µM with HLA-A*02:02 (setting [1]), 2.45 µM with HLA-A*02:06 (setting [1]) and 1.04 µM in the assay with HLA-A*02:03 (setting [1]).
Consider LATLNTLIT, for which the Kd was 1.16 µM with HLA-A*02:02 (setting [1]), 14.2 µM in the assay with HLA-A*02:06 (setting [1]) and 1.55 µM with HLA-A*02:03 (setting [1]).
For LIQYRQQLEL the same measures were no less than 32.8 µM, no less than 52.6 µM and 19.5 µM.
As to LLKNDVPLA, the Kd with HLA-A*02:03 (setting [4]) came out at 0.00825 µM.
As for LLLGVGLAMA, the results for the dissociation constant Kd with HLA-A*02:06 (setting [5]) and with HLA-A*02:03 (setting [5]) were 0.00381 µM and 0.00233 µM, respectively.
Consider LLVAHYAII, for which the Kd with HLA-A*02:03 (source organism: Dengue virus 2 Jamaica/1409/1983) worked out at 0.0273 µM.
With LMSDNPKAST, the dissociation constant (Kd) was 8.88 µM with HLA-A*02:02 (setting [1]), no less than 47.7 µM with HLA-A*02:06 (setting [1]) and 0.938 µM with HLA-A*02:03 (setting [1]).
LVITYCLVT: the Kd worked out at 6.98 µM with HLA-A*02:02 (setting [1]), 8 µM with HLA-A*02:06 (setting [1]) and 3.25 µM with HLA-A*02:03 (setting [1]).
As for MMVILPDKI, the Kd was 0.0692 µM in the assay with HLA-A*02:02 (setting [1]), 0.909 µM with HLA-A*02:06 (setting [1]) and 0.0163 µM in the assay with HLA-A*02:03 (setting [1]).
For NITTLLNETA the same measures were 0.218 µM, 1.13 µM and 0.106 µM.
In the case of PQDNQLAYV, in the assay with HLA-A*02:06 (setting [4]), the Kd was 0.166 µM.
Turning to RLATAIAGA, the Kd in the assay with HLA-A*02:03 (setting [5]) is 0.0115 µM.
